Paper PMC5012860

Target: T1, UHRF1 wild-type (human) (UniProt Q96T88)
T1 sequence: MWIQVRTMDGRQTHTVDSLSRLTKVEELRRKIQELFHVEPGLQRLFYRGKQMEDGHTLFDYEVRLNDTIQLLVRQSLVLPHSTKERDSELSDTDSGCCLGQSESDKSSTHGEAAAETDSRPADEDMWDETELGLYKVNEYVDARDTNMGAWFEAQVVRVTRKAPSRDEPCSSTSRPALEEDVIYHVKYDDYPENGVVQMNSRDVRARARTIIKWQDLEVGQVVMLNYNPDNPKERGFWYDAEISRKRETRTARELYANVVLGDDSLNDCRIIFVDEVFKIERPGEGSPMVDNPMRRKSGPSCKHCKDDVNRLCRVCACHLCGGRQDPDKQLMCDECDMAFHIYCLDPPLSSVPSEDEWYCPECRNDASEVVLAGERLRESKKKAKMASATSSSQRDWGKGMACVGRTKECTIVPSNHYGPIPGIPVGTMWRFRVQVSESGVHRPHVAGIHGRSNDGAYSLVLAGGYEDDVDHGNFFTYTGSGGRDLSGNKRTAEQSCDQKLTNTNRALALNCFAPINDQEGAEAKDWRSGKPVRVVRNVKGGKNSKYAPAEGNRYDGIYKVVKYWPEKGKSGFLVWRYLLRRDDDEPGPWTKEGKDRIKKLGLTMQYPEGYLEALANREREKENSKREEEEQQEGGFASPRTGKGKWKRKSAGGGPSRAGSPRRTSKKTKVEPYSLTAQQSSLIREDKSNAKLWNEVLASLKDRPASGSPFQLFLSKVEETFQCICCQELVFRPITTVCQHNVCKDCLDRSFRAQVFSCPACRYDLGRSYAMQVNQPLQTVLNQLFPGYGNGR
Assay: fluorescence polarization
Conditions: 50 mM vs 150 mM NaCl; 5mC at position 6 of strand 2 (GTCAG5mCGCATGG); 25 mM HEPES pH 7.5, 0.05% NP-40, 100 mM NaCl (unless indicated), 10 nM FAM-DNA, 10 min, 25 C; scale: fold affinity difference between 50 and 150 mM NaCl

CCATGCGCTGAC (double strand) [HeDNA] was tested, and the binding signal was 500.
